Test results: patent publication US20130137855A1 (CSL, published 2013)

T1: Soluble human IL-3Rα (human, UniProt P26951 20-305, limits assumed)
T1 construct: The assay used 'soluble human IL-3Rα'; also called IL-3Rα chain; interleukin 3 receptor alpha chain
T1 sequence: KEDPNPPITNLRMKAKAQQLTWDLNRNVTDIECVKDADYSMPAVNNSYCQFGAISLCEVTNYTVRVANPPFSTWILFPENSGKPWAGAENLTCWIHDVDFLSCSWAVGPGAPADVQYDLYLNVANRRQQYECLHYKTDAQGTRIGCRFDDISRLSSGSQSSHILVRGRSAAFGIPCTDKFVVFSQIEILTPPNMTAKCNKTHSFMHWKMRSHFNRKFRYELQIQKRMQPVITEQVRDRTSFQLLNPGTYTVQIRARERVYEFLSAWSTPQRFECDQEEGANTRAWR

B1: CSL362B (antibody, human IgG1, kappa, V domains shown)
VH: EVQLVQSGAEVKKPGESLKISCKGSGYSFTDYYMKWARQMPGKGLEWMGDIIPSNGATFYNQKFKGQVTISADKSISTTYLQWSSLKASDTAMYYCARSHLLRASWFAYWGQGTMVTVSS
VL: DIVMTQSPDSLAVSLGERATINCESSQSLLNSGNQKNYLTWYQQKPGQPPKPLIYWASTRESGVPDRFSGSGSGTDFTLTISSLQAEDVAVYYCQNDYSYPYTFGQGTKLEIKR
modifications: Heavy chain constant region is afucosylated
notes: Expressed in FUT8-knock-out CHO cells (Potelligent)

What was measured:
[1] = molecular target: Soluble human IL-3Rα (human) (UniProt P26951); assay: SPR (Biacore), soluble human IL-3Rα immobilized on CM-5 chip, scFv injected, 25 °C
Soluble human IL-3Rα [2] = molecular target: T1, Soluble human IL-3Rα; assay: SPR (Biacore), mAb captured by anti-human Fc antibody, soluble human IL-3Rα injected, 25 °C
Soluble human IL-3Rα [3] = molecular target: T1, Soluble human IL-3Rα; assay: SPR (Biacore), mAb captured by anti-mouse Fc antibody, soluble human IL-3Rα injected, 25 °C

Molecule | Kd (Soluble human IL-3Rα [2]) [nM] | other results
CSL362 scFv | – | Kd [1]: 2.2 nM
chimeric form of parental murine mAb (human IgG1) (antibody) | 1 | –
parental murine mAb (7G3) (antibody) | – | Kd (Soluble human IL-3Rα [3]): 0.92 nM
B1 | ~0.43 | –
